Results reported in article PMC10304631 (Pharmaceutics, 2023).

Columns and labels:
[1] = predicted log P; ref Drugbank.com and pubchem.ncbi.nlm.nih.gov (accessed on 3 January 2023); cited from earlier work
Caco-2 cells [2] = test: PEN-mediated uptake of TAMRA-insulin by flow cytometry; type: cell-based, human; conditions: 5 µM TAMRA-insulin alone or with 20 µM PEN, 1 h, 37 °C, mean ± SD, N = 2, n = 3
Experimental: The controls were incubated with a buffer without CPP or insulin. The cells were kept on a shaking table (37 °C, 50 rpm) for 1 h. Hereafter, the test solutions were removed, and the cells were washed twice with cold phosphate-buffered saline (4 °C) and trypsinized for 10–15 min. Trypsinization was terminated by the addition of excess cold hHBSS (4 °C) containing 10% (v/v) FBS (hHBSS/FBS). The cells were then collected and centrifuged at 4000 rpm (1076× g, 4 °C). The supernatant was removed, and the cells were washed once with hHBSS/FBS and centrifuged again at the same conditions before suspension in hHBSS/FBS containing 0.3% (v/v) DRAQ7 as a marker of the plasma membrane’s integrity. To quench extracellular plasma membrane-associated fluorescence, a parallel experiment was performed using the same test solutions, with the addition of trypan blue (TB) at a final concentration of 0.1% (v/v) just prior to analysis.

Caco-2 cells [3] = test: PEN-mediated uptake of TAMRA-insulin by confocal microscopy (CLSM); type: cell-based, human; conditions: undifferentiated Caco-2 cells; 5 µM TAMRA-insulin alone, pH 7.4, 1 h

Compound	Log P [1]	MFI (A.N.) of TAMRA-insulin (Caco-2 cells [2]; pH 6.5, with Trypan Blue (0.1% v/v))	MFI (A.N.) of TAMRA-insulin (Caco-2 cells [2]; pH 7.4, with Trypan Blue (0.1% v/v))	MFI (A.N.) of TAMRA-insulin (Caco-2 cells [2]; pH 7.4, without Trypan Blue)	Uptake of TAMRA-insulin (CLSM) (Caco-2 cells [3])
OC[C@@H](O)[C@@H](O)[C@H](O)[C@H](O)CO [Mannitol]	−3.7	–	–	–	–
TAMRA-Insulin: insulin labeled with TAMRA (5/6-carboxy-tetramethyl-rhodamine succinimidyl ester)	–	49.6 ± 1.9 A.N.	40.8 ± 2.6 A.N.	41.2 ± 2.9 A.N.	uptake was absent
Vancomycin	−4.4	–	–	–	–
